Laboratory results as given in US10213494B2, “Treatment of synucleinopathies” (The Brigham and Women's Hospital, Inc., priority 2007, dated 2019).

Columns and labels:
GBA = conditions: Lieberman R et al., (2007); cited from earlier work
MES-syn cells = assay: LDH release assay of cellular integrity; format: cell-based, rodent; conditions: enzyme cDNA 5 μg/10 cm dish, versus control vector transfected cells
Protocol: To confirm that the effect of Cathepsin D on lowering of αS in MES23.5 cells was specific and was not caused by a general decrease in cellular metabolism and integrity, the MTT and LDH assays were performed on MES-syn cells that had been co-transfected with the highest amount of Cathepsin D-encoding cDNA (5 μg/10 cm dish). Lysis of cells with 0.1% Triton-X® 100 served as a positive control, representing maximal cell death.
To confirm that the effect of Cathepsin F on lowering of αS was specific and was not caused by a general decrease in cellular integrity, the LDH assay was performed on MES-syn cells that had been co-transfected with Cathepsin F-encoding CTSF cDNA (5 μg/10 cm dish). Lysis of cells with 0.1% Triton-X 100 served as a positive control for cell toxicity, promoting maximal cell death.

[1] = tested on: α-synuclein protein (wild-type, human) in MES23.5 cells; assay: Sandwich ELISA of intracellular α-synuclein in MES23.5 cells co-transfected with wild-type human SNCA cDNA and lysosomal enzyme cDNA; format: cell-based; conditions: cathepsin F cDNA 5 μg/10 cm dish, 24 hours, n=3
[2] = tested on: α-synuclein protein (wild-type, human) in MES23.5 cells; assay: as above; format: cell-based; conditions: GBA variant plasmid 5 μg per 10 cm dish + 0.5 μg SNCA cDNA, 24 hours after transfection, no prosaposin; mean+/−sem
Protocol: Sera from six rabbits were raised and affinity-purified at Open Biosystems, Inc. (openbiosystems.com) against recombinant, full-length human αS. Recombinant αS had been HPLC- and MS-characterized and subjected to amino acid composition and protein concentration analyses. For ELISA, 384-well MaxiSorp plates (Nunc, Inc) were coated with 50 μl/well capturing polyclonal Ab (hSA-2) diluted in coating buffer (NaHCO3 with 0.2% NaN3, pH 9.6). Following washes with PBS/0.05% Tween-20 (PBS-T), plates were blocked for 2 hours at 37° C. in blocking buffer (1.125% fish skin gelatin; PBS-T). After 4 washes, samples were loaded and incubated at 4° C. for 12 hours. Biotinylated Syn-1 mAb (as the assaying Ab) was generated using 200 μg Sulfo-NHS-LC Biotin (Pierce), diluted in blocking buffer and added to the plate for 2 hours at 37° C. Following 4 washes, ExtrAvidin phosphatase (Sigma) diluted in blocking buffer was applied for 1 hr at 37° C. Color development was carried out by using Fast-p-Nitrophenyl Phosphate (Sigma) and monitored kinetically at OD 405 nm every 5 minutes for up to 60 minutes.
To optimize a ‘DNA: LIPOFECTAMINE® 2000’ ratio with low cell toxicity, MES23.5 cells were transfected with either 0.25, 0.5 or 1 μg αS-encoding, wild-type, human SNCA cDNA plus empty vector cDNA up to a total of 5.5 μg DNA per 10 cm dish. 24 hours after transfection, cell lysates were harvested as described above. For serial dilutions of cell lysates, blocking buffer containing 0.5% lysate from vector-transfected wells was used as diluent, which was also used to create the blank and the corresponding standard curve of recombinant human αS. Saturation kinetics were examined for identification of time point(s) where standards and sample dilutions were in the log phase.
MES cells were transfected with 0.5 μg per 10 cm dish of αS-encoding SNCA cDNA-carrying plasmid, plus 5 μg per 10 cm dish of wild-type or mutant, human GBA-encoding plasmid. The GBA variants used were wild type, N370S, D409H, L444P, E235A, and E340A. These 5 GBA mutants were created by site-directed mutagenesis, using the Quickchange® kit (Stratagene), and sequence-verified. The N370S, D409H and L444P are known to occur (in the homozygous or compound heterozygous state) in Gaucher disease in the heterozygous state in Parkinson Disease patients and/or patients with dementia with Lewy bodies. The E235A and E340A mutant GBA proteins are not known to occur in people.
24 hours after transfection, MES cells were lysed as described above and all lysates were analyzed by ELISA. […] This is in contrast to the result observed in Example 5 above. The observed discrepancy can reflect the differences in total DNA transfected in the two paradigms (FIG. 2B; FIG. 2C versus FIG. 4), thereby leading to changes in the DNA:LIPOFECTAMINE® 2000 ratio, and in the role of co-expressed prosaposin (saposin C). It is therefore conceivable that wild-type GBA can have variable effects on αS levels in these MES23.5 cells, depending on the rate of αS import into lysosomes and the composition as well as activation state of more than one lysosomal enzyme.
MES23.5 cells were transfected with 0.5 μg per 10 cm dish of an αS-encoding, wild-type, human SNCA cDNA-carrying plasmid (referred to as MES-hSNCA WT cells in the Western blot shown in FIG. 6), plus either 1.25, 2.5 or 5 μg per 10 cm dish of a human Cathepsin D-encoding CTSD cDNA plasmid, which was purchased from OriGene Technologies, Inc., and was under the control of a CMV promoter. The Cathepsin D clone was fully sequence-verified after isolation and maxiprep. Each transfection arm was balanced with empty vector DNA up to a total of 5.5 μg DNA per 10 cm dish. 24 hours after transfection, cells were lysed, and the resulting lysates were analyzed by the sandwich ELISA described herein. […]

[3] = tested on: α-synuclein protein in MES23.5 cells; assay: Western blot of α-synuclein in co-transfected MES23.5 cells; format: cell-based, human; conditions: 24 hours
Protocol: Cells were transfected with 0, 0.25, 0.5, 1, 5, and 10 μg (per 10 cm dish) of plasmid. 24 hours later, cells were washed with Tris-buffered saline and lysed in 140 mM NaCl, 50 mM Tris-Hcl, pH 8.0, 1 mM EDTA, 0.5% Triton-X100, and 1× protease inhibitors. Lysates were centrifuged at 100,000×g for 30 min at 4° C.; the top 2/3 of supernatants were removed and frozen in siliconized tubes at −80° C. Samples were run on SDS/PAGE, using 1 mM DTT as the reducing agent. Expression of the αS protein was confirmed at 24 hours post-transfection by Western blotting, where cell lysates were probed with a monoclonal antibody against αS protein (syn-1 antibody, BD Transduction Labs).
MES23.5 cells were transfected with 0.5 μg αS-encoding SNCA cDNA per 10 cm dish plus either 1.25, 2.5 or 5 μg (low, medium, or high) GBA-encoding cDNA in the absence or presence of 5 μg of Prosaposin-encoding cDNA. All arms of the experiment were balanced up to a total of 10.5 μg cDNA per 10 cm dish using empty vector cDNA. The GBA- and Prosaposin-encoding cDNA plasmids under a CMV promoter, as well as the pCMV-XL5 empty vector were purchased from OriGene Technologies, Inc (clones had been fully sequence-verified after isolation and a maxiprep). 24 hours later, cells were lysed and probed for GBA and αS protein levels. The upper panel in of FIG. 2B3 is a representation of a Western Blot indicating expression of GBA protein in the absence and presence of co-transfected prosaposin. GBA was probed using the monoclonal antibody 8E4. GBA over-expression occurred in a slightly gene-dosage dependent way in the absence of prosaposin. In the presence of prosaposin over-expression, the GBA signal itself was decreased. […]

## OC[C@H]1CNC[C@@H](O)[C@@H]1O [isofagomine]
GBA
  effect on GBA activity: increase GBA activity in mice and humans

B1: cathepsin F: human lysosomal cysteine protease expressed from CTSF plasmid under a CMV promoter (protein, UniProt Q9UBX1 271-484, looked up)
Cathepsin F: APPEWDWRSKGAVTKVKDQGMCGSCWAFSVTGNVEGQWFLNQGTLLSLSEQELLDCDKMDKACMGGLPSNAYSAIKNLGGLETEDDYSYQGHMQSCNFSAEKAKVYINDSVELSQNEQKLAAWLAKRGPISVAINAFGMQFYRHGISRPLRPLCSPWLIDHAVLLVGYGNRSDVPFWAIKNSWGTDWGEKGYYYLHRGSGACGVNTMASSAVVD
MES-syn cells
  LDH signal: less than or equal to that of control vector transfected cells
[1]
  intracellular α-synuclein level, % of control levels: 51.7+/−14.1%

B2: wild-type GBA: human acid-beta-glucocerebrosidase expressed from GBA-encoding cDNA plasmid under a CMV promoter (protein, UniProt P04062 40-536, looked up)
Lysosomal acid …: ARPCIPKSFGYSSVVCVCNATYCDSFDPPTFPALGTFSRYESTRSGRRMELSMGPIQANHTGTGLLLTLQPEQKFQKVKGFGGAMTDAAALNILALSPPAQNLLLKSYFSEEGIGYNIIRVPMASCDFSIRTYTYADTPDDFQLHNFSLPEEDTKLKIPLIHRALQLAQRPVSLLASPWTSPTWLKTNGAVNGKGSLKGQPGDIYHQTWARYFVKFLDAYAEHKLQFWAVTAENEPSAGLLSGYPFQCLGFTPEHQRDFIARDLGPTLANSTHHNVRLLMLDDQRLLLPHWAKVVLTDPEAAKYVHGIAVHWYLDFLAPAKATLGETHRLFPNTMLFASEACVGSKFWEQSVRLGSWDRGMQYSHSIITNLLYHVVGWTDWNLALNPEGGPNWVRNFVDSPIIVDITKDTFYKQPMFYHLGHFSKFIPEGSQRVGLVASQKNDLDAVALMHPDGSAVVVVLNRSSKDVPLTIKDPAVGFLETISPGYSIHTYLWRRQ
[2]
  intracellular α-synuclein level, % of vector cDNA control levels: 109.7+/−9.88%
[3]; GBA cDNA 1.25, 2.5 or 5 μg + 0.5 μg SNCA cDNA, absence of co-transfected prosaposin
  α-synuclein protein level by Western blot: lowered the co-expressed α-synuclein protein levels at the largest amount of co-transfected GBA cDNA
[3]; GBA cDNA low/medium/high with 5 μg Prosaposin-encoding cDNA
  α-synuclein protein level by Western blot: strong decrease in α-synuclein protein levels at even the lower concentrations
